The text below walks through data of patent publication US20120053125A1.

The target in assay [1] is Protein Phosphatase-1 (PP1), purified catalytic subunit (New England BioLabs) (UniProt P62139). The assay is described as follows: cell-based or functional assay.
The target of assay [2] is endogenous type-1 protein phosphatase (PP1) of adult rat cardiomyocyte lysates (rat). Description: cell-based or functional assay.

Where a chain is given by its changes, count along the chain named. Names and notes keep the numbering of the source.

Chain of Protein Phosphatase-1 (PP1), purified catalytic subunit (New England BioLabs) (P62139 whole entry): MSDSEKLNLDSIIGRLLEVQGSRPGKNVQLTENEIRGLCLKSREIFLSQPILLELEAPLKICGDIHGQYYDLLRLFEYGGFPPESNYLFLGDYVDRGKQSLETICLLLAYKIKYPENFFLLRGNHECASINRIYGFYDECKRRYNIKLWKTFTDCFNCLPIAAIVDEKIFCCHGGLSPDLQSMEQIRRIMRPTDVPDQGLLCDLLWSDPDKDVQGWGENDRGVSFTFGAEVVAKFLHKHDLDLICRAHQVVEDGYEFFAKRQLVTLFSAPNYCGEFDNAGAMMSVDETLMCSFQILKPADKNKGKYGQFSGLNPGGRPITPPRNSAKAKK

B1: PKA-phosphorylated human I-1 wild type (protein)
chain: MEQDNSPRKIQFTVPLLEPHLDPEAAEQIRRRRPTPATLVLTSDQSSPEIDEDRIPNPHLKSTLAMSPRQRKKMTRITPTMKELQMMVEHHLGQQQQGEEPEGAAESTGTQESRPPGIPDTEVESRLGTSGTAKKTAECIPKTHERGSKEPSTKEPSTHIPPLDSKGANSV
modifications: phosphothreonine at Thr-35 (phosphorylated in vitro by PKA)
As for B1, the IC50 of inhibition of PP1 activity (dephosphorylation of 32P-MyBP) in assay [1] turned out to be 3.2 nM.

B2: human I-1 (T75D) (protein)
chain: B1 chain with T75D
In assay [2], B2 showed a PP1 activity remaining after PKA stimulation in infected rat cardiomyocytes of 2 fold; an increase in type-1 phosphatase activity in infected rat cardiomyocyte lysates compared to Ad.I-1WT and Ad.GFP of 27%. In assay [1], this molecule registered an increase of purified PP1c activity compared to I-1 wild-type of 23%.

B3: human I-1 (S67D) (protein)
chain: B1 chain with S67D
In assay [2], B3 displayed a PP1 activity remaining after PKA stimulation in infected rat cardiomyocytes of 2 fold.

B4: human I-1 (S67D/T75D) (protein)
chain: B1 chain with S67D, T75D
For B4, the PP1 activity remaining after PKA stimulation in infected rat cardiomyocytes in assay [2] was 2 fold.

B5: human I-1 wild type phosphorylated first by PKC-α and then by PKA (protein)
chain: B1 chain
modifications: phosphothreonine at Thr-35 (PKA); phosphoserine at Ser-67 and phosphothreonine at Thr-75 (PKC-α)
B5 registered an IC50 of inhibition of PP1 activity (dephosphorylation of 32P-MyBP) in assay [1] of 4.9 nM.

B6: human I-1 (S67A) phosphorylated by PKC-α (protein)
chain: B1 chain with S67A
modifications: phosphothreonine at Thr-75 (phosphorylated in vitro by PKC-α; 0.35 mol Pi/mol protein)
Regarding B6, the increase of purified PP1c activity compared to I-1 wild-type in assay [1] turned out to be 25%.
